# Data: the RNAGym collection of RNA variant scans (doi:10.1073/pnas.2313332121)
# Fewer inactive variants are shown than the library holds.
# B1: TPR 5TU (parent)
# chain: GGAUCUUCUCGAUCUAACAAAAAAGACAAAUCUGCCACAAAGCUUGAGAGCAUCUUCGGAUGCAGAGGCGGCAGCCUUCGGUGGCGCGAUAGCGCCAACGUUCUCAACUAUGACACGCAAAACGCGUGCUCCGUUGAAUGGAGUUUAUCAUG
# Variants of: B1
# Experiment: polymerase ribozyme fitness, log enrichment relative to wild type (log ratio); higher = more active; in vitro selection for triplet polymerase activity
# In short: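 The heterodimeric triplet polymerase ribozyme's subunits were each mutagenized into PCR-built libraries and transcribed. Every library was selected once, in triplicate, by annealing with a biotinylated primer, the partner subunit and triplets, incubating frozen at −7 °C, gel-excising extended constructs, capturing on streptavidin beads and running RT-PCR. Input and output libraries were Illumina-sequenced, with genotypes kept only at ≥10 input reads and ≥1 read per output. Fitness, from inverse-variance-weighted replicate averages, is the base-2 logarithm of genotype enrichment over wild-type enrichment.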
row,Variant,polymerase ribozyme fitness (log ratio)
1,GGAUCUUCUCGAUUUAACAAAAAAGACAAAUCUGCCACAAUGCUUAAGAGCUUCUUCGGAUGGAGAGGCGGCAGCCUUCGGUGGCGCGAUAGUGCCAACGUUCUGAACUAUGACACGCAAAACGCGUGCUCCGUUGAAUGGAGUUUAUCAUG [C14U A41U G46A A52U C63G C93U C105G],≤ -4.2
2,GGAUCUUCUCGAUGUAACAAAAAAGACAAAUCUGCCACAAAGCUUGAGAGCAUCUUCGGAAGCAGAGGCGGCAGCCUUCGGUGGUGCGAUAGAGCCAACGUUCUCAAUUAUGACUCGCAAAACGCGUGCUCCGUUGAAUGGAGUUUAUCAUG [C14G U61A C85U C93A C108U A115U],≤ -4.2
3,GGAUCUUCUCGAUUUGACAAAAAAGACAAAUCUGCCACAAAGCUUGAGAGCAUCUACGGAUGCAGAGGCGGCAGCCUUCGGUGGCGCGAUAGCGCCAACGUUCUCAACUAUGACACGCAAAACGCGUGCUCCGUUGAAUGGAGUUUAUCAUG [C14U A16G U56A],-2.11
4,GGAUCUUCUCGAUUUAAAAAAAAAGACAAAUCUGCCACAAAGCUUGAGAGCAUCUUCGGACGCAGAGGCGGCAGCCUUCGGUGGCGCGAUAGCGCCAACGUUCUCAACUAUGACACGCAAAACGCGUGCUCCGUUGAAGGGAGUUUAUCAUG [C14U C18A U61C U139G],-4.16
5,GGAUCUUCUCGAUUUAUCAAAAAAGACAAAUCUGCCAGAAAGCUUGAGAGCAUCUUCGGUUGCAGAGGCGGCAGCCUUCGGUGGCGCGAUAGCGCCAACGUUCUCAACUAUGACACGCAAAACGCGUGCUCCGUUGAAUGGAGUUUAUCAUG [C14U A17U C38G A60U],-2.73
6,GGAUCUUCUCGAUUUUACAAAAAAGACAAAUCUGCCACAAAGCUUGAGAGCAUCUUCGGAUGCAGAGGCGGCAGCCUUCGAUGGCGCGAUAGCGCCAACGUUCUCAACUAUGACACGCAAAACGCGUGCUCCGUUGAAUGGAGUUUUUCAUG [C14U A16U G81A A147U],-1.35
7,GGAUCUUCUCGAUUUAACAAAAAAGACAAAUCUGCCACAAAGCUUGAGAGCGUCUUCGGAUACAGAGGCGGCAGCCUUCGGUGGCGCGAUAGCGCGAACGUUCGCAACUAUGACACGCAAAACGCGUGCUCCGUUGAAUGGAGUUUAUCAUG [C14U A52G G62A C96G U104G],≤ -4.2
8,GGAUCUUCUCGAUUUAACUAAAAAGACAAAUCUGCCACAAAGCUUGAGAGCAUCUUCGGAUGCAGAGGCGGCAGCCUUCGGUGACGCGAUAGCGCCAACGUUCUCAACUAUGACACGCAAAACGCGUGCUCCGUUGAAUGGAGUUUAUCAUG [C14U A19U G84A],-0.945
9,GGAUCUUCUCGAUUUAACAAAAAAGAGAAAUCUGGCACUAAGCUUGAGAGCAUCUUCGGAUGCAGAGGCGGCAGCCUUCGGAGGCACGAUAGCGCCUACGUUCUCAACUAUGACACGCAAAACGCGUGCUCCGUUGAAUGGAGUUUAUCAUG [C14U C27G C35G A39U U82A G86A A97U],≤ -4.2
10,GGAUCUUCUCGAUUUAACAAAAAAGACAAAUCUGCCACGAAGCUUGAGAGCAUCUUCGGAUGCAGAGGCGGCAGCCUUCGGUGGCGCGAUAGUGCCAACGUUCUCAACUAUGACACGCAAAACGCGUGCUCCGUUGAAUGGAAUUUAUCAUG [C14U A39G C93U G143A],≤ -4.2
11,GGAUCUUCUCGAUUUAACAAAAAAGACAAGUCUGCCACAAAGCUUGAAAGCAUCUUCGGAUGCAGAGGCGGCAGCGUUCGGUGGCGCGAUAGCGCCAUCGUGCUCAACUAUGACACGCAAAACGCGUGCUCCGUUGAAUGGAGUUUAUCAUG [C14U A30G G48A C76G A98U U102G],≤ -4.2
12,GGAUCUUCUCGAUGUAACAAAAAAGACAAAUCUGCCACAAAGCUUGAGAGCAUCUACGGAUGCAGAGGCGGCAGCCUUCGGUGGCGCGAUAGCGCUAACGUUCUCAACUAUGACACGCAAAACGCGUGCUCCGUUGAAUGGAGUUUAUCAUG [C14G U56A C96U],-3.43
13,GGAUCUUCUCGAUUUAACAAAAAAGACAAAUCUGCCACAAAGCUUGAGAGCAUCUUCGGAUGCAGAGGCGGCGGGCUUCGGUGGCGAGAUAGCGCCAGCGUUCUCAACUAGGACACGCAAAACGCGUGCUCCGUUGAAUGGAGUUUAUCAUG [C14U A73G C75G C87A A98G U111G],≤ -4.2
14,GGAUCUUCUCGAUUUAACAAAAAAGACAAAUCUGCCACAAAGCUUGAGAGCGGCUUCGGAUGCAGAGGCGGCAACCUUCGGUGGCGCGAUCGCGCUAACGUUCUCAACUAUGACACGCAAAACGCGUGCUCCGUUGAAUGUAGUUUAUCAUG [C14U A52G U53G G74A A91C C96U G141U],≤ -4.2
15,GGAUCUUCUCGAUGUAACAAAAAAGACAAAUCUGCCACAAAGCUUGAGAGCAGCUUCGGAUGCAGAGGCGGCAGCCGUCGGUGGCGCGAUUGCGCCAACGUUCUCAACUAUGACACGCAAAACGCGUGCUCCGUUGAAUGGAGUUUAUCAUG [C14G U53G U77G A91U],≤ -4.2
16,GGAUCUUCUCGAUUUAACAAAAAAGACAAAUCUGCCACAAAGCUUGAGAGCAUCUUCGGAUGCAGAGGCGGCAGCCUUCGGUGGCGCGUUAGUGCCAACGUUCUCAACUAUGACACGCAAAACGCGUGCUCCGUUGAAUGGAGUUUAUCAUG [C14U A89U C93U],-3.88
17,GGAUCUUCUCGAUGUAACAAAAAAGACAAAUCUGCCACAAAGCUUGAGAGCAUCUACGGCUGCAGAGGCGGCAGCCUUCGGUGGCGCCAUAGCGUCAACGUUCUCAACUAUGACACGCAAAACGCGUGCUCCGUUGAAGAGAGUUUAUCAUG [C14G U56A A60C G88C C95U U139G G140A],≤ -4.2
18,GGAUCUUCUCGAUUUAACAAAGAAGACAAAUCUGCCACGAAGCUUGAGAGCAUCUUCGGAUGCAGAGGCGACAGCCUUCGGUGGCGCGAUAGUGCCAACGUUCUCAACUAUGACACGCAAAACGCGUGCUCCGUUGAAUGGAGUUUAUCAUC [C14U A22G A39G G71A C93U G152C],≤ -4.2
19,GGAUCUUCUCGAUUUAACCAAAAAGACAAAUCUGCCACAAAGCUAGAGAGCAUCUUCGGAUGCAGAGGCGGCAGCCUUCGGUGACGCGAUAGCGCAAACGUUCUCAACCAUGACACGCAAAACGCGUGCUCCGUUGAAUGGAGUUUAUCAUG [C14U A19C U45A G84A C96A U109C],≤ -4.2
